B1: coiled-coil domain of Num1 (residues 97-294) (domain or fragment, Saccharomyces cerevisiae, UniProt Q00402 97-294, looked up)
chain: MNFTLELSENLLVECRKLQSSNEAKNEQIKSLKQIKESLSDKIEELTNQKKSFMKELDSTKDLNWDLESKLTNLSMECRQLKELKKKTEKSWNDEKESLKLLKTDLEILTLTKNGMENDLSSQKLHYDKEISELKERILDLNNENDRLLISVSDLTSEINSLQSNRTERIKIQKQLDDAKASISSLKRKVQKKYYQKQ
B2: full-length Mdm36 (residues 1-579) (natural protein, Saccharomyces cerevisiae, UniProt Q06820 1-579, looked up)
chain: MDENGTVKPGYELKGLNSGNSRSNMDKDPIVSKFHRAGLNDSADEEDTDINGNRNTSWITSMISEEKRKVEGKSMLNDEEDLHLSKATLNKCDALVKILADIIKLEFVIHQSWYIRSLHKSVLIQFEVETSGGNKNSAGDSGDDDDDNHNGNLDDSFYKDLSLKCIKKCEKSSLALESLSRDIDQIRDFIMSNTIEDNRVDRLLQNSMTLLLECWIYSMKRLRRLRMKIAGIFVRSKLLLIDHELVTIWHFLQEQNEHETVNNENELKLAETIKSYRAFIKIFIQQLEDSESGSPSSSLFEECLHVFLDIESMYNSLNLNWLLNENKALQERLLSPSSTSENDHTNNLPVIDETKEIEDISSFVNSIVDASMLTHDLTPINSSDSDNLSNGEIDRLDGRRLSSSTSDMSLMMQRTSLQKQLPSLLTAFNNARRLEQELQNACKVNDNKHSTKDTDSNIRRNEHAMSSSVSSIISQNSTLASPSPPMSSSFISTAPSQSSSRMSTLPLSPSSSLLESQSQTLKNNMSQWLNQSRSGLNGTKLIPTNHIGFHSNVLNTLYGIGGGPVSKSYKSNQPSSQNT
B3: Num1 (97-175) (domain or fragment, Saccharomyces cerevisiae, UniProt Q00402 97-175, looked up)
chain: MNFTLELSENLLVECRKLQSSNEAKNEQIKSLKQIKESLSDKIEELTNQKKSFMKELDSTKDLNWDLESKLTNLSMECR
B4: Num1 (97-195), N-terminal half of Num1CC (domain or fragment, Saccharomyces cerevisiae, UniProt Q00402 97-195, looked up)
chain: MNFTLELSENLLVECRKLQSSNEAKNEQIKSLKQIKESLSDKIEELTNQKKSFMKELDSTKDLNWDLESKLTNLSMECRQLKELKKKTEKSWNDEKESL

The data set “SEC-MALS” concerns the molecule itself. As to the kind of experiment: SEC-MALS. (Size exclusion chromatography separates by hydrodynamic size, large species first.)
The target in data set [1] is B2. As to the kind of experiment: ITC. (ITC needs no label: the signal is the heat of the interaction.)
The target of data set [2] is B2. Briefly: SEC.

As to B1, the “stoichiometry N” value in “SEC-MALS” is 2. Also, in data set [1], binding was put at a Kd of 121 nM and the “stoichiometry N” value is 1 Num1CC per Mdm36 (1:1).

B2: in the data set “SEC-MALS”, the “stoichiometry N” value is 2. Consider B3, for which, in data set [2], the binding result is “binds”. Same read-out and setting: with B4 the entry was “binds”.

One may read the stoichiometry N as a count of units in the complex or per binding partner. The Kd is the constant that tells how readily two partners part at equilibrium. A high value points to lower affinity.

The values are drawn from publication PMC8112169 (Molecules and Cells, 2021).
